Here are results for 19 molecules from paper PMC314469, “Protein Interaction Networks by Proteome Peptide Scanning” (PLoS Biology, 2004).

Holding throughout (test): SPOT array
The target of experiment [1] is T1, Boi1 SH3 (BOI1_YEAST), P38041.
T1 chain: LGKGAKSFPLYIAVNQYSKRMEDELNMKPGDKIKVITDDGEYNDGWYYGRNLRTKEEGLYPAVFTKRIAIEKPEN

Experiment [2] deals with T2, Yfr024 SH3 (LSB3_YEAST), P43603.
T2 chain: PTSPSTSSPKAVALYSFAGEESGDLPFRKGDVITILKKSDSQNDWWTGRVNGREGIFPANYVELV

Experiment [3] addresses T3, Boi2 SH3 (BOI2_YEAST), P39969.
T3 chain: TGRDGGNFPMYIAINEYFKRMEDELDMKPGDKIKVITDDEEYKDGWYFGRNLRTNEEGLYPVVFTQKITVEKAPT

Experiment [4] addresses T4, Yhr016c SH3 (YSC84_YEAST), P32793.
T4 chain: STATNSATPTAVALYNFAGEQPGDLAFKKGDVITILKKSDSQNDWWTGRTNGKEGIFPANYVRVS

The target in experiment [5] is T5, Rvs167 SH3 (RV167_YEAST), P39743.
T5 chain: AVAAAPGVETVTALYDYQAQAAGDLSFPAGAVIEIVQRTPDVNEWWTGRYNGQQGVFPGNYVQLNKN

For the molecule GYDPTDPSRPRINE [YDR093W 1469-1482], the normalised SPOT signal, Boehringer light units (BLU); mean over the file's lines of this peptide was 98.5 in experiment [1]; -0 in experiment [2]; 34.7 in experiment [3]; 257 in experiment [4]; 71.5 in experiment [5].
For HPDPADPAKELELN [YDR037W 377-390] the same measures were 72, -0, 12.4, 161 and 50.
For GTPPTTPLRTAQGI [YOR025W 379-392], the normalised SPOT signal, Boehringer light units (BLU); mean over the file's lines of this peptide in experiment [1] was determined as 97.3; in experiment [2], 5740; in experiment [3], 36; in experiment [4] it was 2770; in experiment [5], 197.
The corresponding values for GVPPNFPQRMMPPP [YKL204W 471-484] are 58.2, 1870, 84.6, 283 and 58.8.
For HLPPPPPPRAQQQQ [YOR329C 664-677] the same measures were 61, 6510, 15.5, 1630 and 1900.
The corresponding values for HGVPVVPSREVTIN [YER014W 440-453] are 140, 555, 33.6, 765 and 82.
Consider HGLPYKPSKLIRIF [YLR224W 329-342], for which the normalised SPOT signal, Boehringer light units (BLU); mean over the file's lines of this peptide was 80.3 in experiment [1]; 747 in experiment [2]; 60.3 in experiment [3]; 222 in experiment [4]; 67.7 in experiment [5].
Take HQIPSAPQRLVSII [YMR136W 114-127]: the normalised SPOT signal, Boehringer light units (BLU); mean over the file's lines of this peptide is 86.7 in experiment [1]; 572 in experiment [2]; 18.8 in experiment [3]; 216 in experiment [4]; 16 in experiment [5].
For GRKPKDPSKPRQML [YML065W 331-344] the same measures were 147, 268, 42.2, 160 and 31.8.
For HLDPEAPDKLLENS [YOR301W 109-122] the same measures were 161, 35.4, 62.5, 329 and 29.1.
For HEHPSGPLKKLFSD [YIL002C 144-157] the same measures were 1.6, 167, -0, -0 and 13.3.
With GVFPNSPVKQTTII [YPL023C 580-593], the normalised SPOT signal, Boehringer light units (BLU); mean over the file's lines of this peptide in experiment [1] was 64.4; in experiment [2], 269; in experiment [3], 97.9; in experiment [4], 116; in experiment [5], 4.
For GSSPVSPDKRPSWK [YGL156W 66-79] the same measures were 69.6, 223, 18.6, 493 and 50.3.
The corresponding values for GSEPIDPSKLEFAR [YLR191W 299-312] are 57.5, 53.6, 25.3, 37.9 and 33.
For GYDPTDPNRPKVTK [YER166W 1426-1439] the same measures were 108, 54.7, 52.4, 69.3 and 35.5.
Consider GSNPDLPNKSNLKF [YGR080W 307-320], for which the normalised SPOT signal, Boehringer light units (BLU); mean over the file's lines of this peptide in experiment [1] came to 163; in experiment [2], 637; in experiment [3], 38.5; in experiment [4], 180; in experiment [5] it was 26.2.
The corresponding values for HNSPVAPNRYAANL [YBR038W 84-97] are 157, 155, 33.8, 244 and 87.3.
With GWKPLRPIKLISWD [YJR126C 478-491], the normalised SPOT signal, Boehringer light units (BLU); mean over the file's lines of this peptide in experiment [1] came out at 59.3; in experiment [2], 12000; in experiment [3], 236; in experiment [4] it was 407; in experiment [5], 286.
For the molecule GVYPSRPEKTYDYS [YBR026C 71-84], the normalised SPOT signal, Boehringer light units (BLU); mean over the file's lines of this peptide in experiment [1] was 111; in experiment [2] it was 470; in experiment [3], 47.3; in experiment [4] it was 113; in experiment [5] it was 12.9.
